In patent US20210292396A1:

Legend:
Experiment in all cases: cell-based or functional assay
[1] = molecular target: Env of HIV isolate MI369.A5 (clade A) (HIV)
[2] = molecular target: Env of HIV isolate 0077.v1.c16 (clade C) (HIV)
[3] = molecular target: Env of HIV isolate C1080.c3 (clade AE) (HIV)
[4] = molecular target: Env of HIV isolate 3168.v4.c10 (clade C) (HIV)
[5] = molecular target: HIV Env of isolate QH0692.42 (HIV)
[6] = molecular target: HIV Env of isolate T266-60 (HIV)
[7] = molecular target: Env of HIV isolate 3337.v2.c6 (clade CD) (HIV)
[8] = molecular target: Env of HIV isolate UG021.16 (clade D) (HIV)
[9] = molecular target: Env of HIV isolate CNE56 (clade AE) (HIV)
[10] = molecular target: HIV Env of isolate 3468.v1.c12 (HIV)
[11] = molecular target: HIV Env of isolate T278-50 (HIV)
[12] = molecular target: HIV Env of isolate QH209.14M.A2 (HIV)
[13] = molecular target: Env of HIV isolate 3589.v1.c4 (clade AC) (HIV)
[14] = molecular target: HIV Env of isolate 3337.v2.c6 (HIV)
[15] = molecular target: Env of HIV isolate TRJO.58 (clade B) (HIV)
[16] = molecular target: HIV Env of isolate BJOX025000.01.1 (HIV)
[17] = molecular target: HIV Env of isolate REJO.67 (HIV)
[18] = molecular target: Env of HIV isolate 3016.v5.c45 (clade D) (HIV)
[19] = molecular target: Env of HIV isolate T278-50 (clade AG) (HIV)
[20] = molecular target: Env of HIV isolate MB539.2B7 (clade A) (HIV)
[21] = molecular target: HIV Env of isolate 6838.v1.c35 (HIV)
[22] = molecular target: HIV Env of isolate 6471.v1.c16 (HIV)
[23] = molecular target: HIV Env of isolate 0013095-2.11 (HIV)
[24] = molecular target: Env of HIV isolate 0921.v2.c14 (clade C) (HIV)
[25] = molecular target: HIV Env of isolate MS208.A1 (HIV)
[26] = molecular target: Env of HIV isolate 0815.v3.c3 (clade ACD) (HIV)
[27] = molecular target: Env of HIV isolate T253-11 (clade AG) (HIV)
[28] = molecular target: HIV Env of isolate CNE7 (HIV)
[29] = molecular target: Env of HIV isolate 3637.v5.c3 (clade C) (HIV)
[30] = molecular target: Env of HIV isolate TRO.11 (clade B) (HIV)
[31] = molecular target: HIV Env of isolate UG021.16 (HIV)
[32] = molecular target: Env of HIV isolate X1632.S2.B10 (clade G) (HIV)
[33] = molecular target: Env of HIV isolate R3265.c6 (clade AE) (HIV)
[34] = molecular target: Envelope protein of SVA.MLV (clade NA)
[35] = molecular target: HIV Env of isolate 89.6.DG (HIV)
[36] = molecular target: HIV Env of isolate 001428-2.42 (HIV)
[37] = molecular target: HIV Env of isolate THRO.18 (HIV)
[38] = molecular target: Env of HIV isolate YU2.DG (clade B) (HIV)
[39] = molecular target: HIV Env of isolate 6785.v5.c14 (HIV)
[40] = molecular target: HIV Env of isolate ZM197.7 (HIV)
[41] = molecular target: Env of HIV isolate TH976.17 (clade AE) (HIV)
[42] = molecular target: Env of HIV isolate BI369.9A (clade A) (HIV)
[43] = molecular target: HIV Env of isolate HXB2.DG (HIV) (UniProt P04578)
[44] = molecular target: Env of HIV isolate CNE7 (clade BC) (HIV)
[45] = molecular target: HIV Env of isolate 620345.c1 (HIV)
[46] = molecular target: HIV Env of isolate UG037.8 (HIV)
[47] = molecular target: Env of HIV isolate RW020.2 (clade A) (HIV)
[48] = molecular target: HIV Env of isolate CNE31 (HIV)
[49] = molecular target: Env of HIV isolate 242-14 (clade AG) (HIV)
[50] = molecular target: HIV Env of isolate A07412M1.vrc12 (HIV)
[51] = molecular target: HIV Env of isolate CNE15 (HIV)
[52] = molecular target: HIV Env of isolate TRO.11 (HIV)
[53] = molecular target: Env of HIV isolate R1166.C1 (clade AE) (HIV)

PGT121 (antibody) showed an IC50, pseudovirus neutralization [1] of 0.0507 µg/mL, an IC50, pseudovirus neutralization [2] of over 50 µg/mL and an IC50, pseudovirus neutralization [3] of over 50 µg/mL. For the same substance, the IC50, pseudovirus neutralization [4] was 0.446 µg/mL, the IC80 [5] was 5.8 µg/mL and the IC80 [6] was 0.548 µg/mL. It also gave an IC50, pseudovirus neutralization [7] of 1.39 µg/mL, an IC50, pseudovirus neutralization [8] of 0.916 µg/mL and an IC50, pseudovirus neutralization [9] of over 50 µg/mL. For the same substance, the IC80 [10] was 0.413 µg/mL, the IC80 [11] was over 50 µg/mL and the IC80 [12] was over 50 µg/mL. The IC50, pseudovirus neutralization [13] was over 50 µg/mL, the IC80, pseudovirus neutralization [14] was over 50 µg/mL and the IC50, pseudovirus neutralization [15] was 1.63 µg/mL. The IC80 [16] was over 50 µg/mL, the IC80 [17] was over 50 µg/mL and the IC50, pseudovirus neutralization [18] was over 50 µg/mL. The IC50, pseudovirus neutralization [19] was over 50 µg/mL, the IC50, pseudovirus neutralization [20] was over 50 µg/mL and the IC80, pseudovirus neutralization [21] was 0.21 µg/mL. It also gave an IC80, pseudovirus neutralization [22] of over 50 µg/mL, an IC80, pseudovirus neutralization [23] of over 50 µg/mL and an IC50, pseudovirus neutralization [24] of over 50 µg/mL. The IC80 [25] was over 50 µg/mL, the IC50, pseudovirus neutralization [26] was 0.0323 µg/mL and the IC50, pseudovirus neutralization [27] was over 50 µg/mL. For the same substance, the IC80, pseudovirus neutralization [28] was 0.121 µg/mL, the IC50, pseudovirus neutralization [29] was over 50 µg/mL and the IC50, pseudovirus neutralization [30] was 0.0203 µg/mL. For the same substance, the IC80, pseudovirus neutralization [31] was over 50 µg/mL, the IC50, pseudovirus neutralization [32] was over 50 µg/mL and the IC50, pseudovirus neutralization [33] was over 50 µg/mL. The IC50, pseudovirus neutralization [34] was over 50 µg/mL, the IC80 [35] was 0.0783 µg/mL and the IC80, pseudovirus neutralization [36] was 0.108 µg/mL. It also gave an IC80 [37] of over 50 µg/mL, an IC50, pseudovirus neutralization [38] of 0.0397 µg/mL and an IC80, pseudovirus neutralization [39] of 0.108 µg/mL. For the same substance, the IC80, pseudovirus neutralization [40] was over 50 µg/mL, the IC50, pseudovirus neutralization [41] was over 50 µg/mL and the IC50, pseudovirus neutralization [42] was 0.0283 µg/mL. For the same substance, the IC80 [43] was over 50 µg/mL, the IC50, pseudovirus neutralization [44] was 0.0477 µg/mL and the IC80 [45] was over 50 µg/mL. For the same substance, the IC80 [46] was 0.307 µg/mL, the IC50, pseudovirus neutralization [47] was 0.01 µg/mL and the IC80, pseudovirus neutralization [48] was 2.08 µg/mL. It also gave an IC50, pseudovirus neutralization [49] of over 50 µg/mL, an IC80, pseudovirus neutralization [50] of 0.208 µg/mL and an IC80, pseudovirus neutralization [51] of over 50 µg/mL. For the same substance, the IC80 [52] was 0.0583 µg/mL and the IC50, pseudovirus neutralization [53] was over 50 µg/mL.
